Assay results: PMC7508745

Biological target: Skp(S126C) (UniProt P0AEU7)
Experiment: SEC; HiLoad 16/600 Superdex 200 pg; NMR buffer (20 mM MES, pH 6.5, 150 mM NaCl, 1 mM DTT); refolded protein eluted at 79 mL

stoichiometry N: 3
Substance: Skp(S126C) (from UniProt P0AEU7 21-161) (natural protein)
